Measurements published in patent US20240228612A1 (SICHUAN KELUN BIOTECH BIOPHARMACEUTICAL, published 2024).

T1: human Nectin-4 on cell membrane surface (human, UniProt Q96NY8 32-510)
T1 construct: whole, on cells; also called A549-Nectin-4; T24-Nectin-4
T1 sequence (looked up): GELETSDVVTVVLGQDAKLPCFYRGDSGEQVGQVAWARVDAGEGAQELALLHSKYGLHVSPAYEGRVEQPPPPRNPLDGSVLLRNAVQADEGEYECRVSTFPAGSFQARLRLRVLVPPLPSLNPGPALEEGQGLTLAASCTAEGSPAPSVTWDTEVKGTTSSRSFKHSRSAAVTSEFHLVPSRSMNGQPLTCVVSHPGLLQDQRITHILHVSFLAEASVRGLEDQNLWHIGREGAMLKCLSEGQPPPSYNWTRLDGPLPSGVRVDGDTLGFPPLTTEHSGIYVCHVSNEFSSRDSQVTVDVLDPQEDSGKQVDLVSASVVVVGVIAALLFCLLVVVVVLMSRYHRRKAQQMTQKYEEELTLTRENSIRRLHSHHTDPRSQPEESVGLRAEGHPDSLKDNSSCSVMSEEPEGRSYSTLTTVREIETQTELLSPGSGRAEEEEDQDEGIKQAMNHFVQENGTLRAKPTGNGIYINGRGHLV

T2: human Nectin-1 antigen (human, UniProt Q15223 31-334, limits assumed)
T2 sequence (looked up): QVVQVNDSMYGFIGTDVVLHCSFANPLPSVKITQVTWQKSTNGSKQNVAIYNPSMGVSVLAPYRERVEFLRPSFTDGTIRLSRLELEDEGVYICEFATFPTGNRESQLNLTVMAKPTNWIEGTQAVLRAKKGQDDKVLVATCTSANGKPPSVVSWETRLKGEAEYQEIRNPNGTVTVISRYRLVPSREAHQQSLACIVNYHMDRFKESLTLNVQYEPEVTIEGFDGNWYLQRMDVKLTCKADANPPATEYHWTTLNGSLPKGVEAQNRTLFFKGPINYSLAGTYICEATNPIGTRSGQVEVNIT

T3: human Nectin-2 antigen (human, UniProt Q92692 32-360, limits assumed)
T3 sequence (looked up): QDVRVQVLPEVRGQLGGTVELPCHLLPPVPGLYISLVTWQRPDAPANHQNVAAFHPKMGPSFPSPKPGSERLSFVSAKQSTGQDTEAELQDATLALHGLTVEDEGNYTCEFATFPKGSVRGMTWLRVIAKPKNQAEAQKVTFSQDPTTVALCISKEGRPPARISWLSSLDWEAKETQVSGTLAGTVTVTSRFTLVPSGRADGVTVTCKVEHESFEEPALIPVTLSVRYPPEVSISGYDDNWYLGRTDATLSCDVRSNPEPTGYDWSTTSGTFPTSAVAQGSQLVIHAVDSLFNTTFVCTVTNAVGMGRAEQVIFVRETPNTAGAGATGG

T4: human Nectin-4 protein (human, UniProt Q96NY8 32-349)
T4 construct: Purified protein used for coating in ELISA and as analyte in Octet; also called human Nectin-4 antigen
T4 sequence (looked up): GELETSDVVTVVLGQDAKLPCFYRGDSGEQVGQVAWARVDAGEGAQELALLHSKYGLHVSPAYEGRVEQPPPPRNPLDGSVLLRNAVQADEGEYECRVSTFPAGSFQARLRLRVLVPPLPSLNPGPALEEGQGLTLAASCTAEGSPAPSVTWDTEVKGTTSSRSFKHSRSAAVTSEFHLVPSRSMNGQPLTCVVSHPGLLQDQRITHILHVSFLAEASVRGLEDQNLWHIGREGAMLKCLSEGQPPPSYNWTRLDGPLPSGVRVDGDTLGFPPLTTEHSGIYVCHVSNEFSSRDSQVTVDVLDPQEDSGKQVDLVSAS


Legend:
[1] = biological target: T1, human Nectin-4 on cell membrane surface; assay: flow cytometry on T47D cells
Description: The specific steps were as follows: T47D cells were digested, resuspended by centrifugation, and washed twice with PBS; the cells were resuspended in PBS (containing 1% BSA), and spread into a 96-well tip-bottom plate at 3×10⁵ cells/well, with a volume of 50 μl per well; 50 μL of the antibody to be tested was added to each well, starting at a final concentration of […], 4-fold gradient dilution, a total of 10 concentration points; Human IgG was used as a negative control; after being mixed well, the resulting mixture was reacted in the dark at 4° C. for 1 hour; washing was performed 3 times with PBS, FITC-labeled anti-human Fc secondary antibody (brand: BioLegend, product number: 409322) was added, incubated at 4° C. for 0.5 hours in the dark; washing was performed 3 times with PBS, and detection was carried out using a flow cytometer (flow cytometer brand: Beckman, model: Cytoflex).

human Nectin-3 antigen = human Nectin-3 antigen (human, UniProt Q9NQS3 58-404, limits assumed); assay: ELISA, coated human Nectin-3, anti-human-HRP
human Nectin-3 antigen, sequence (Q9NQS3 58-404 limits assumed): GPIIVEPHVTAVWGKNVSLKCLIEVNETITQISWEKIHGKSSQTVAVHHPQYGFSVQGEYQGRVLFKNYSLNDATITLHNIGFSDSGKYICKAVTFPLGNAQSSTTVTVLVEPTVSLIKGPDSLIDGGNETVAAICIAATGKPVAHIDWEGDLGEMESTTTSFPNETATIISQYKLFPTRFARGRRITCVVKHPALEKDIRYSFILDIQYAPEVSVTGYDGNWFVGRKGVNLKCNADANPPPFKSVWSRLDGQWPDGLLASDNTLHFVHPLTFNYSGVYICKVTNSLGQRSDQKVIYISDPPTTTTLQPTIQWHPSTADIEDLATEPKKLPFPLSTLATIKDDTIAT
Description: (§1) The Nectin family includes members of Nectin-1, Nectin-2, Nectin-3 and Nectin-4, and the members share a sequence identity of about 25%, but have similar structure and function. […] The specific steps were as follows: human Nectin-1, Nectin-2, Nectin-3 and Nectin-4 antigens were diluted to 1 μg/mL with CBS coating solution, coated on an ELISA plate at 100 μL per well, and standed overnight at 4° C.; the liquid in the well was discarded on the next day, and washing was performed once with 300 μL of PBS; 100 μL of PBS (containing 2% BSA) was added, and blocking was performed at 37° C. for 2 hours; 31HZ, 56HZ, 74HZ and Enfortumab antibodies were diluted with PBS (containing 2% BSA), 100 μL was taken and added to the corresponding well, incubated at 37° C. for 2 hours; washing was performed 3 times with 300 μL of PBST; HRP-labeled goat anti-human secondary antibody was diluted at a ratio of 1:10000 with PBS (containing 2% BSA), 100 μL was taken and added to the corresponding well, incubation was performed at 37° C. for 1 hour; washing was performed 5 times with 300 μL of PBST; 100 μL of TMB color development solution was added to the corresponding well, and color development was performed at room temperature for 5-20 minutes; 50 μL of 2N H₂SO₄ was added for stopping, a microplate reader was used for collecting readings at OD450 nm, and the data were imported into Graphpad Prism for curve fitting.

human Nectin-1 antigen = biological target: T2, human Nectin-1 antigen; assay: ELISA, coated human Nectin-1, anti-human-HRP
Description: as §1

human Nectin-2 antigen = biological target: T3, human Nectin-2 antigen; assay: ELISA, coated human Nectin-2, anti-human-HRP
Description: as §1

human Nectin-4 protein = biological target: T4, human Nectin-4 protein; assay: ELISA, coated human Nectin-4, anti-human-HRP
Description: The Nectin family includes members of Nectin-1, Nectin-2, Nectin-3 and Nectin-4, and the members share a sequence identity of about 25%, but have similar structure and function. […]

[2] = biological target: T1, human Nectin-4 on cell membrane surface; assay: flow cytometry on NCI-N87 cells

| EC50 [1] [µg/mL] | binding result (human Nectin-3 antigen) | binding result (human Nectin-1 antigen) | binding result (human Nectin-2 antigen) | EC50 (read off the curve) (human Nectin-4 protein) [µg/mL] | EC50 [2] [µg/mL] | Binder |
| --- | --- | --- | --- | --- | --- | --- |
| 0.0223 | no binding (tested: 10000 ng/mL) | no binding (tested: 10000 ng/mL) | no binding (tested: 10000 ng/mL) | – | – | anti-human Nectin-4 humanized monoclonal antibody 74HZ (antibody, human IgG1, kappa, V domains shown, Human IgG1 heavy chain constant region, human kappa light chain constant region; expressed in CHO-E cells) VH: QVQLVQSGAEVKKPGSSVKVSCKASGYTFINYWMNWVRQAPGQGLEWIGMIHPSDSATRLNQSFQGRVTLTVDKSTSTAYMELSSLRSEDTAVYYCARWGNFYTVNAWYYFDYWGQGTLVTVSS VL: DIVITQSPDSLAVSLGERATINCKSSQTLLNSNTQKNYLAWYQQKPGQSPKLLFYFASTRESGVPDRFSGSGSGTDFTLTISSLQAEDVAVYFCQQHYSTPLTFGQGTKLEIKR |
| 0.0123 | no binding (tested: 10000 ng/mL) | no binding (tested: 10000 ng/mL) | no binding (tested: 10000 ng/mL) | – | – | anti-human Nectin-4 humanized monoclonal antibody 31HZ (antibody, human IgG1, kappa, V domains shown, Human IgG1 heavy chain constant region, human kappa light chain constant region; expressed in CHO-E cells) VH: QVQLVQSGAEVKKPGSSVKVSCKASGYTFTDYWMNWVRLAPGQGLEWIGMIHPSDSETRLNQKFQGRVTLTVDKSTSTAYMELSSLRSEDTAVYYCARWDFRIYYAMDYWGQGTLVTVSS VL: DVVITQSPDSLAVSLGERATINCKSSQSLLNTNSQKNYLAWYQQKPGQSPKLLVYFASTRESGVPDRFSGSGSGTDFTLTISSLQAEDVAVYFCQQHYSTPLTFGGGTKVEIKR |
| – | no binding | no binding | no binding | ~0.006 | 0.0164 | anti-human Nectin-4 humanized monoclonal antibody 56HZ (antibody, human IgG1, kappa, V domains shown, Human IgG1 heavy chain constant region, human kappa light chain constant region; expressed in CHO-E cells) VH: QVQLQESGPGLVKPSQTLSLTCTVSGYFNSITSDYDWHWIRHHPGKGLEWMGYISFSGRTYYNPSLKSRVTISHDTSKNQFSLKLSSVTAADTAVYYCARGNYDGFDYWGQGTLVTVSS VL: DIVLTQSPATLSLSPGERATLSCRASQNIGTSIHWYQHKPGQSPRLLIKFASESISGIPARFSGSGSGTDFTLTISSLEPEDFAVYYCQQSKSWPTYTFGGGTKVEIKR |
